Reference: patent US20100215651A1 (GLENMARK PHARMACEUTICALS S A, published 2010)

T1: human CD19 (human, UniProt P15391 20-556)
T1 construct: CD19 as expressed on Raji, NALM-6 and SU-DHL-6 cells; also called CD19 antigen; B-cell surface antigen B4
T1 sequence: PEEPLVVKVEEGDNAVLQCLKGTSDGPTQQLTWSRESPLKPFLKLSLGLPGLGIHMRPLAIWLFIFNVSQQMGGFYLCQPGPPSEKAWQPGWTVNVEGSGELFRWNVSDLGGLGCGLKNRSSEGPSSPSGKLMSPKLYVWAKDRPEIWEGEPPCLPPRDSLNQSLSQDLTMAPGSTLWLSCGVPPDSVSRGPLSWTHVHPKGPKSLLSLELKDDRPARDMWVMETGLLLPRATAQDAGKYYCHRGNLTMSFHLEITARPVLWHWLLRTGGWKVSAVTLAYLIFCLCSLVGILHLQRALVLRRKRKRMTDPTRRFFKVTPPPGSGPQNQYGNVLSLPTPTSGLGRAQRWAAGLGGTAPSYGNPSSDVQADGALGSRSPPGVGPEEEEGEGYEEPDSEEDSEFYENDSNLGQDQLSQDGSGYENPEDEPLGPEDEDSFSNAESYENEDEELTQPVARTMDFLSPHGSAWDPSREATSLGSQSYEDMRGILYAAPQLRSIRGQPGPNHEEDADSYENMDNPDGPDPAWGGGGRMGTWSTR


target: T1, human CD19; experiment: flow cytometry, Raji cells, MPF vs chimeric FMC63
Description: (§1) Binding of the CD19 humanized monoclonal antibodies by flow cytometry to Raji tumor cells (human Burkitt lymphoma, DSMZ ACC319), NALM-6 (human B cell precursor leukemia, DSMZ ACC128) and SU-DHL-6 (human B cell lymphoma, DSMZ ACC572) (all cell lines from DSMZ Braunschweig, Deutschland) was assessed. Cells were incubated with serial dilutions of each humanized monoclonal antibody. An irrelevant human IgG1 was used as a negative control. The cells were washed and detected by a phycoerythrin-labeled (PE) anti-human secondary antibody (eBioscience, CA, USA) and analyzed by flow cytometry. […] From MFI versus antibody concentration curves, Mid-Point Fluorescence (MPF) value for each anti-CD19 humanized antibody was calculated using the software GraphPad Prism 5 (CA, USA).

Row | Binder | relative MPF (% of chimeric FMC63) [%] | binding result
1 | VH16 Y32F/R94K/VL43 V3Q/T7S/P44I/N92A (antibody, human IgG1, name in Kabat numbering, V domains shown, Full-length human IgG1/kappa; substitutions in Kabat numbering) VH: QVQLVQSGGGVVQPGRSLRLSCAASGVSLPDFGVSWVRQAPGKGLEWVAVIWGSETTYYNSALKSRFTISRDNSKNTLYLQMNSLRAEDTAVYYCAKHYYYGGSYAMDYWGQGTLVTVSS VL: DIQMTQSPSSLSASVGDRVTITCRASQDISKYLNWYQQKPGKAIKLLIYHTSRLHSGVPSRFSGSGSGTDFTLTISSLQPEDFATYYCQQGATLPYTFGPGTKVDIKR | 133 | 
2 | VH16 R94K VL43 Y32F (antibody, human IgG1, V domains shown, Full-length human IgG1/kappa; substitutions in Kabat numbering) VH: QVQLVQSGGGVVQPGRSLRLSCAASGVSLPDYGVSWVRQAPGKGLEWVAVIWGSETTYYNSALKSRFTISRDNSKNTLYLQMNSLRAEDTAVYYCAKHYYYGGSYAMDYWGQGTLVTVSS VL: DIVMTQTPSSLSASVGDRVTITCRASQDISKFLNWYQQKPGKAPKLLIYHTSRLHSGVPSRFSGSGSGTDFTLTISSLQPEDFATYYCQQGNTLPYTFGPGTKVDIKR | 39.5 | 
3 | VH16 R94K/VL43 V3Q/T7S/N92A (antibody, human IgG1, Full-length human IgG1/kappa; substitutions in Kabat numbering) heavy: not shown VL: DIQMTQSPSSLSASVGDRVTITCRASQDISKYLNWYQQKPGKAPKLLIYHTSRLHSGVPSRFSGSGSGTDFTLTISSLQPEDFATYYCQQGATLPYTFGPGTKVDIKRTVAA | 18.2 | 
4 | VH16-R94K/VL43-Y87F (antibody, human IgG1, V domains shown, Full-length human IgG1/kappa; substitutions in Kabat numbering) VH: QVQLVQSGGGVVQPGRSLRLSCAASGVSLPDYGVSWVRQAPGKGLEWVAVIWGSETTYYNSALKSRFTISRDNSKNTLYLQMNSLRAEDTAVYYCAKHYYYGGSYAMDYWGQGTLVTVSS VL: DIVMTQTPSSLSASVGDRVTITCRASQDISKYLNWYQQKPGKAPKLLIYHTSRLHSGVPSRFSGSGSGTDFTLTISSLQPEDFATYFCQQGNTLPYTFGPGTKVDIKR | 31.8 | 
5 | VH16-G42R/VL43-Y87F (antibody, human IgG1, name in Kabat numbering, V domains shown, substitutions in Kabat numbering) VH: QVQLVQSGGGVVQPGRSLRLSCAASGVSLPDYGVSWVRQAPRKGLEWVAVIWGSETTYYNSALKSRFTISRDNSKNTLYLQMNSLRAEDTAVYYCARHYYYGGSYAMDYWGQGTLVTVSS VL: DIVMTQTPSSLSASVGDRVTITCRASQDISKYLNWYQQKPGKAPKLLIYHTSRLHSGVPSRFSGSGSGTDFTLTISSLQPEDFATYFCQQGNTLPYTFGPGTKVDIKR | 8.43 | 
6 | VH16-L78V/VL43-P44V (antibody, human IgG1, name in Kabat numbering, V domains shown, substitutions in Kabat numbering) VH: QVQLVQSGGGVVQPGRSLRLSCAASGVSLPDYGVSWVRQAPGKGLEWVAVIWGSETTYYNSALKSRFTISRDNSKNTVYLQMNSLRAEDTAVYYCARHYYYGGSYAMDYWGQGTLVTVSS VL: DIVMTQTPSSLSASVGDRVTITCRASQDISKYLNWYQQKPGKAVKLLIYHTSRLHSGVPSRFSGSGSGTDFTLTISSLQPEDFATYYCQQGNTLPYTFGPGTKVDIKR | 25.9 | 

Further lines, results first:

Row | relative MPF (% of chimeric FMC63) [%] | binding result | Binder
7 |  | binds | VH16 Y32F/R94K/Y97F/VL43 V3Q/T7S/P44I/N92A (antibody, human IgG1, name in Kabat numbering, V domains shown, Full-length human IgG1/kappa; substitutions in Kabat numbering) VH: QVQLVQSGGGVVQPGRSLRLSCAASGVSLPDFGVSWVRQAPGKGLEWVAVIWGSETTYYNSALKSRFTISRDNSKNTLYLQMNSLRAEDTAVYYCAKHYFYGGSYAMDYWGQGTLVTVSS VL: DIQMTQSPSSLSASVGDRVTITCRASQDISKYLNWYQQKPGKAIKLLIYHTSRLHSGVPSRFSGSGSGTDFTLTISSLQPEDFATYYCQQGATLPYTFGPGTKVDIKR
8 |  | binds | VH16 Y32F/R94K/VL43 V3Q/T7S/Y32F/P44I/N92A (antibody, human IgG1, name in Kabat numbering, V domains shown, Full-length human IgG1/kappa; substitutions in Kabat numbering) VH: QVQLVQSGGGVVQPGRSLRLSCAASGVSLPDFGVSWVRQAPGKGLEWVAVIWGSETTYYNSALKSRFTISRDNSKNTLYLQMNSLRAEDTAVYYCAKHYYYGGSYAMDYWGQGTLVTVSS VL: DIQMTQSPSSLSASVGDRVTITCRASQDISKFLNWYQQKPGKAIKLLIYHTSRLHSGVPSRFSGSGSGTDFTLTISSLQPEDFATYYCQQGATLPYTFGPGTKVDIKR
9 | 10 |  | VH16/VL43-Y87F (antibody, human IgG1, V domains shown, substitutions in Kabat numbering) VH: QVQLVQSGGGVVQPGRSLRLSCAASGVSLPDYGVSWVRQAPGKGLEWVAVIWGSETTYYNSALKSRFTISRDNSKNTLYLQMNSLRAEDTAVYYCARHYYYGGSYAMDYWGQGTLVTVSS VL: DIVMTQTPSSLSASVGDRVTITCRASQDISKYLNWYQQKPGKAPKLLIYHTSRLHSGVPSRFSGSGSGTDFTLTISSLQPEDFATYFCQQGNTLPYTFGPGTKVDIKR
10 |  | binds | VH16 R94K/VL43 V3Q/T7S/Y32F/N92A (antibody, human IgG1, V domains shown, Full-length human IgG1/kappa; substitutions in Kabat numbering) VH: QVQLVQSGGGVVQPGRSLRLSCAASGVSLPDYGVSWVRQAPGKGLEWVAVIWGSETTYYNSALKSRFTISRDNSKNTLYLQMNSLRAEDTAVYYCAKHYYYGGSYAMDYWGQGTLVTVSS VL: DIQMTQSPSSLSASVGDRVTITCRASQDISKFLNWYQQKPGKAPKLLIYHTSRLHSGVPSRFSGSGSGTDFTLTISSLQPEDFATYYCQQGATLPYTFGPGTKVDIKR
11 |  | binds | VH16 R94K/Y97F/VL43 V3Q/T7S/Y32F/P44I/N92A (antibody, human IgG1, name in Kabat numbering, V domains shown, Full-length human IgG1/kappa; substitutions in Kabat numbering) VH: QVQLVQSGGGVVQPGRSLRLSCAASGVSLPDYGVSWVRQAPGKGLEWVAVIWGSETTYYNSALKSRFTISRDNSKNTLYLQMNSLRAEDTAVYYCAKHYFYGGSYAMDYWGQGTLVTVSS VL: DIQMTQSPSSLSASVGDRVTITCRASQDISKFLNWYQQKPGKAIKLLIYHTSRLHSGVPSRFSGSGSGTDFTLTISSLQPEDFATYYCQQGATLPYTFGPGTKVDIKR

target: T1, human CD19; experiment: flow cytometry, NALM-6 cells, MPF vs chimeric FMC63
Description: as §1

Row | relative MPF (% of chimeric FMC63) [%] | Binder
12 | 2.4 | VH16-F67L/VL43 (antibody, human IgG1, name in Kabat numbering, V domains shown, substitutions in Kabat numbering) VH: QVQLVQSGGGVVQPGRSLRLSCAASGVSLPDYGVSWVRQAPGKGLEWVAVIWGSETTYYNSALKSRLTISRDNSKNTLYLQMNSLRAEDTAVYYCARHYYYGGSYAMDYWGQGTLVTVSS VL: DIVMTQTPSSLSASVGDRVTITCRASQDISKYLNWYQQKPGKAPKLLIYHTSRLHSGVPSRFSGSGSGTDFTLTISSLQPEDFATYYCQQGNTLPYTFGPGTKVDIKR
13 | 3.48 | VH16-G42R/VL43 (antibody, human IgG1, name in Kabat numbering, V domains shown, substitutions in Kabat numbering) VH: QVQLVQSGGGVVQPGRSLRLSCAASGVSLPDYGVSWVRQAPRKGLEWVAVIWGSETTYYNSALKSRFTISRDNSKNTLYLQMNSLRAEDTAVYYCARHYYYGGSYAMDYWGQGTLVTVSS VL: DIVMTQTPSSLSASVGDRVTITCRASQDISKYLNWYQQKPGKAPKLLIYHTSRLHSGVPSRFSGSGSGTDFTLTISSLQPEDFATYYCQQGNTLPYTFGPGTKVDIKR
14 | 2.37 | VH16-F67L/VL43-P44V (antibody, human IgG1, name in Kabat numbering, V domains shown, substitutions in Kabat numbering) VH: QVQLVQSGGGVVQPGRSLRLSCAASGVSLPDYGVSWVRQAPGKGLEWVAVIWGSETTYYNSALKSRLTISRDNSKNTLYLQMNSLRAEDTAVYYCARHYYYGGSYAMDYWGQGTLVTVSS VL: DIVMTQTPSSLSASVGDRVTITCRASQDISKYLNWYQQKPGKAVKLLIYHTSRLHSGVPSRFSGSGSGTDFTLTISSLQPEDFATYYCQQGNTLPYTFGPGTKVDIKR
15 | 2.67 | VH16-R71K/VL43-F71Y (antibody, human IgG1, name in Kabat numbering, V domains shown, substitutions in Kabat numbering) VH: QVQLVQSGGGVVQPGRSLRLSCAASGVSLPDYGVSWVRQAPGKGLEWVAVIWGSETTYYNSALKSRFTISKDNSKNTLYLQMNSLRAEDTAVYYCARHYYYGGSYAMDYWGQGTLVTVSS VL: DIVMTQTPSSLSASVGDRVTITCRASQDISKYLNWYQQKPGKAPKLLIYHTSRLHSGVPSRFSGSGSGTDYTLTISSLQPEDFATYYCQQGNTLPYTFGPGTKVDIKR
16 | 3.65 | VH16-G42R/VL43-Y87F (antibody, human IgG1, name in Kabat numbering, V domains shown, substitutions in Kabat numbering) VH: QVQLVQSGGGVVQPGRSLRLSCAASGVSLPDYGVSWVRQAPRKGLEWVAVIWGSETTYYNSALKSRFTISRDNSKNTLYLQMNSLRAEDTAVYYCARHYYYGGSYAMDYWGQGTLVTVSS VL: DIVMTQTPSSLSASVGDRVTITCRASQDISKYLNWYQQKPGKAPKLLIYHTSRLHSGVPSRFSGSGSGTDFTLTISSLQPEDFATYFCQQGNTLPYTFGPGTKVDIKR
17 | 3.97 | VH16-G42R/VL43-F71Y (antibody, human IgG1, name in Kabat numbering, V domains shown, substitutions in Kabat numbering) VH: QVQLVQSGGGVVQPGRSLRLSCAASGVSLPDYGVSWVRQAPRKGLEWVAVIWGSETTYYNSALKSRFTISRDNSKNTLYLQMNSLRAEDTAVYYCARHYYYGGSYAMDYWGQGTLVTVSS VL: DIVMTQTPSSLSASVGDRVTITCRASQDISKYLNWYQQKPGKAPKLLIYHTSRLHSGVPSRFSGSGSGTDYTLTISSLQPEDFATYYCQQGNTLPYTFGPGTKVDIKR
18 | 10.9 | VH16-L78V/VL43-P44V (antibody, human IgG1, name in Kabat numbering, V domains shown, substitutions in Kabat numbering) VH: QVQLVQSGGGVVQPGRSLRLSCAASGVSLPDYGVSWVRQAPGKGLEWVAVIWGSETTYYNSALKSRFTISRDNSKNTVYLQMNSLRAEDTAVYYCARHYYYGGSYAMDYWGQGTLVTVSS VL: DIVMTQTPSSLSASVGDRVTITCRASQDISKYLNWYQQKPGKAVKLLIYHTSRLHSGVPSRFSGSGSGTDFTLTISSLQPEDFATYYCQQGNTLPYTFGPGTKVDIKR
